Laboratory results as given in US20210388087A1 (Chugai, published 2021).
Substitutions are numbered along the chain they refer to. Names and notes keep the numbering of the source. Blank lines part the entries; values can stand above or below the binder they belong to.

Molecular target: T1, CD3 epsilon homodimer protein (UniProt P07766 23-126)
T1 construct: immobilized on Sensor chip CM4 by amine coupling; also called CD3 (CD3 epsilon)
Test: SPR (Biacore T200), CD3 epsilon homodimer on CM4 chip, one-arm antibody as analyte, 25 C;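 note: homodimer attached to the sensor surface via amine coupling, HBS-EP+ used as running buffer during binding runs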

T1 sequence (P07766 23-126): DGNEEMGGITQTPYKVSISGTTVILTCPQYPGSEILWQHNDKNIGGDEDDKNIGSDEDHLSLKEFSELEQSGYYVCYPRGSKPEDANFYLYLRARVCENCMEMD

ratio of amounts bound (altered form / CE115HA000): 0.31
B1: CE115HA000 A52aY one-arm antibody (antibody, human IgG1, kappa, L234A L235A, N297A, name in Kabat numbering)
heavy: QVQLVESGGGVVQPGRSLRLSCAASGFTFSNAWMHWVRQAPGKGLEWVAQIKYKSNNYATYYAESVKGRFTISRDDSKNSLYLQMNSLKTEDTAVYYCRYVHYGAYYGVDAWGQGTTVTVSSASTKGPSVFPLAPSSKSTSGGTAALGCLVKDYFPEPVTVSWNSGALTSGVHTFPAVLQSSGLYSLSSVVTVPSSSLGTQTYICNVNHKPSNTKVDKKVEPKSCDKTHTCPPCPAPEAAGGPSVFLFPPKPKDTLMISRTPEVTCVVVDVSHEDPEVKFNWYVDGVEVHNAKTKPREEQYASTYRVVSVLTVLHQDWLNGKEYKCKVSNKALPAPIEKTISKAKGQPREPQVYTLPPSRCELTKNQVSLSCAVKGFYPSDIAVEWESNGQPENNYKTTPPVLDSDGSFFLVSKLTVDKSRWQQGNVFSCSVMHEALHNHYTQKSLSLSPDYKDDDDK
chain: EPKSSDKTHTCPPCPAPELLGGPSVFLFPPKPKDTLMISRTPEVTCVVVDVSHEDPEVKFNWYVDGVEVHNAKTKPREEQYNSTYRVVSVLTVLHQDWLNGKEYKCKVSNKALPAPIEKTISKAKGQPREPQVCTLPPSRDELTKNQVSLWCLVKGFYPSDIAVEWESNGQPENNYKTTPPVLDSDGSFFLYSKLTVDKSRWQQGNVFSCSVMHEALHNRYTQKSLSLSP
light: DIVMTQSPLSLPVTPGEPASISCRSSQSLVHSNRNTYLHWYQQKPGQAPRLLIYKVSNRFSGVPDRFSGSGSGTDFTLKISRVEAEDVGVYYCGQGTQVPYTFGQGTKLEIKRTVAAPSVFIFPPSDEQLKSGTASVVCLLNNFYPREAKVQWKVDNALQSGNSQESVTEQDSKDSTYSLSSTLTLSKADYEKHKVYACEVTHQGLSSPVTKSFNRGEC

ratio of amounts bound (altered form / CE115HA000): 0.82
B4: CE115HA000 A99S one-arm antibody (antibody, human IgG1, kappa, L234A L235A, N297A, name in Kabat numbering)
heavy: B1 heavy with Y53A, A105S
chain: B1 chain
light: B1 light

ratio of amounts bound (altered form / CE115HA000): 0.87
B5: CE115HA000 A56N one-arm antibody (antibody, human IgG1, kappa, L234A L235A, N297A, name in Kabat numbering)
heavy: B1 heavy with Y53A, A59N
chain: B1 chain
light: B1 light

ratio of amounts bound (altered form / CE115HA000): 0.94
B7: CE115HA000 A60E one-arm antibody (antibody, human IgG1, kappa, L234A L235A, N297A, name in Kabat numbering)
heavy: B1 heavy with Y53A, A63E
chain: B1 chain
light: B1 light

ratio of amounts bound (altered form / CE115HA000): 0.91
B12: CE115HA000 A99Q one-arm antibody (antibody, human IgG1, kappa, L234A L235A, N297A, name in Kabat numbering)
heavy: B1 heavy with Y53A, A105Q
chain: B1 chain
light: B1 light

ratio of amounts bound (altered form / CE115HA000): 1.13
B13: CE115HA000 A99L one-arm antibody (antibody, human IgG1, kappa, L234A L235A, N297A, name in Kabat numbering)
heavy: B1 heavy with Y53A, A105L
chain: B1 chain
light: B1 light

ratio of amounts bound (altered form / CE115HA000): 1.41
B14: CE115HA000 D72A one-arm antibody (antibody, human IgG1, kappa, L234A L235A, N297A, name in Kabat numbering)
heavy: B1 heavy with Y53A, D75A
chain: B1 chain
light: B1 light

ratio of amounts bound (altered form / CE115HA000): 0.51
B16: CE115HA000 A56D one-arm antibody (antibody, human IgG1, kappa, L234A L235A, N297A, name in Kabat numbering)
heavy: B1 heavy with Y53A, A59D
chain: B1 chain
light: B1 light

ratio of amounts bound (altered form / CE115HA000): 0.28
B18: CE115HA000 A99D one-arm antibody (antibody, human IgG1, kappa, L234A L235A, N297A, name in Kabat numbering)
heavy: B1 heavy with Y53A, A105D
chain: B1 chain
light: B1 light

ratio of amounts bound (altered form / CE115HA000): 0.76
B19: CE115HA000 A56Q one-arm antibody (antibody, human IgG1, kappa, L234A L235A, N297A, name in Kabat numbering)
heavy: B1 heavy with Y53A, A59Q
chain: B1 chain
light: B1 light

ratio of amounts bound (altered form / CE115HA000): 0.61
B22: CE115HA000 A56G one-arm antibody (antibody, human IgG1, kappa, L234A L235A, N297A, name in Kabat numbering)
heavy: B1 heavy with Y53A, A59G
chain: B1 chain
light: B1 light

The remaining lines, values behind:

B2: CE115HA000 A99T one-arm antibody (antibody, human IgG1, kappa, L234A L235A, N297A, name in Kabat numbering)
heavy: B1 heavy with Y53A, A105T
chain: B1 chain
light: B1 light
ratio of amounts bound (altered form / CE115HA000): 0.84

B3: CE115HA000 A56L one-arm antibody (antibody, human IgG1, kappa, L234A L235A, N297A, name in Kabat numbering)
heavy: B1 heavy with Y53A, A59L
chain: B1 chain
light: B1 light
ratio of amounts bound (altered form / CE115HA000): 0.8

B6: CE115HA000 A102Y one-arm antibody (antibody, human IgG1, kappa, L234A L235A, N297A, name in Kabat numbering)
heavy: B1 heavy with Y53A, A111Y
chain: B1 chain
light: B1 light
ratio of amounts bound (altered form / CE115HA000): 0.91

B8: CE115HA000 A102I one-arm antibody (antibody, human IgG1, kappa, L234A L235A, N297A, name in Kabat numbering)
heavy: B1 heavy with Y53A, A111I
chain: B1 chain
light: B1 light
ratio of amounts bound (altered form / CE115HA000): 1.48

B9: CE115HA000 A102P one-arm antibody (antibody, human IgG1, kappa, L234A L235A, N297A, name in Kabat numbering)
heavy: B1 heavy with Y53A, A111P
chain: B1 chain
light: B1 light
ratio of amounts bound (altered form / CE115HA000): 0.14

B10: CE115HA000 A56Y one-arm antibody (antibody, human IgG1, kappa, L234A L235A, N297A, name in Kabat numbering)
heavy: B1 heavy with Y53A, A59Y
chain: B1 chain
light: B1 light
ratio of amounts bound (altered form / CE115HA000): 0.66

B11: CE115HA000 A99K one-arm antibody (antibody, human IgG1, kappa, L234A L235A, N297A, name in Kabat numbering)
heavy: B1 heavy with Y53A, A105K
chain: B1 chain
light: B1 light
ratio of amounts bound (altered form / CE115HA000): 1.48

B15: CE115HA000 A99F one-arm antibody (antibody, human IgG1, kappa, L234A L235A, N297A, name in Kabat numbering)
heavy: B1 heavy with Y53A, A105F
chain: B1 chain
light: B1 light
ratio of amounts bound (altered form / CE115HA000): 1.43

B17: CE115HA000 A99Y one-arm antibody (antibody, human IgG1, kappa, L234A L235A, N297A, name in Kabat numbering)
heavy: B1 heavy with Y53A, A105Y
chain: B1 chain
light: B1 light
ratio of amounts bound (altered form / CE115HA000): 1.59

B20: CE115HA000 A60D one-arm antibody (antibody, human IgG1, kappa, L234A L235A, N297A, name in Kabat numbering)
heavy: B1 heavy with Y53A, A63D
chain: B1 chain
light: B1 light
ratio of amounts bound (altered form / CE115HA000): 0.99

B21: CE115HA000 A56K one-arm antibody (antibody, human IgG1, kappa, L234A L235A, N297A, name in Kabat numbering)
heavy: B1 heavy with Y53A, A59K
chain: B1 chain
light: B1 light
ratio of amounts bound (altered form / CE115HA000): 1.35

B23: CE115HA000 A102V one-arm antibody (antibody, human IgG1, kappa, L234A L235A, N297A, name in Kabat numbering)
heavy: B1 heavy with Y53A, A111V
chain: B1 chain
light: B1 light
ratio of amounts bound (altered form / CE115HA000): 1.43
